The record followed here is paper PMC9368917.

This series deals with T1, 3xFLAG-STM0347 (Salmonella enterica serovar Typhimurium (strain not stated in the given text)) (UniProt H9L417).
T1 sequence: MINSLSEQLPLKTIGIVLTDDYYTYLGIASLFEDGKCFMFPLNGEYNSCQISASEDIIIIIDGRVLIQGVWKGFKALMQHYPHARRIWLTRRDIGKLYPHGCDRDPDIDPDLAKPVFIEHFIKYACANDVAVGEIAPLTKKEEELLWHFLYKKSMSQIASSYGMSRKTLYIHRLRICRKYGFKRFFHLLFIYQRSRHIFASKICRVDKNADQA
Nature of the series: EMSA. Conditions: 10 mM Tris-HCl pH 8.3, 50 mM KCl, 1 mM MgCl2, 0.5 mM DTT, 0.5 mM EDTA, 50 ug/mL BSA, 0.2% glycerol; room temperature 20 min; 6% native PAGE in 1x TAE in ice …. (In general: A gel shift assay detects complexes by their altered migration in electrophoresis.)

For the sequence “CATCGCTCAAAACACTACCAGACACAGTATTCACCTGGAAAGGCTTTTTAATCAAAATGTTAGATGTAAGCAATTACGGACAGAAAAAATAGTAAAGTTTATGCCTCAAGTGTCGATAACCTGGATGACACAGGTAAGCCTGGCATAACATTGGTTATCAAAAACCTTCCAAAAGGAAAATTTTATGGCACAAGTAATCAACACTAACAGTCTGTCGCTGCTGACCCAGAATAACCTGAACAAATCCCAGTCCGCACTGGGCACCGCTATCGAGCGTCTGTCTTCTGGTCTGCGTATCAA (double strand) [fljB promoter fragment]”, the binding result was “no binding”.
